T1: G9a and GLP (Homo sapiens, UniProt Q96KQ7+Q9H9B1)
T1 sequence (Q96KQ7 2-1210 limits assumed): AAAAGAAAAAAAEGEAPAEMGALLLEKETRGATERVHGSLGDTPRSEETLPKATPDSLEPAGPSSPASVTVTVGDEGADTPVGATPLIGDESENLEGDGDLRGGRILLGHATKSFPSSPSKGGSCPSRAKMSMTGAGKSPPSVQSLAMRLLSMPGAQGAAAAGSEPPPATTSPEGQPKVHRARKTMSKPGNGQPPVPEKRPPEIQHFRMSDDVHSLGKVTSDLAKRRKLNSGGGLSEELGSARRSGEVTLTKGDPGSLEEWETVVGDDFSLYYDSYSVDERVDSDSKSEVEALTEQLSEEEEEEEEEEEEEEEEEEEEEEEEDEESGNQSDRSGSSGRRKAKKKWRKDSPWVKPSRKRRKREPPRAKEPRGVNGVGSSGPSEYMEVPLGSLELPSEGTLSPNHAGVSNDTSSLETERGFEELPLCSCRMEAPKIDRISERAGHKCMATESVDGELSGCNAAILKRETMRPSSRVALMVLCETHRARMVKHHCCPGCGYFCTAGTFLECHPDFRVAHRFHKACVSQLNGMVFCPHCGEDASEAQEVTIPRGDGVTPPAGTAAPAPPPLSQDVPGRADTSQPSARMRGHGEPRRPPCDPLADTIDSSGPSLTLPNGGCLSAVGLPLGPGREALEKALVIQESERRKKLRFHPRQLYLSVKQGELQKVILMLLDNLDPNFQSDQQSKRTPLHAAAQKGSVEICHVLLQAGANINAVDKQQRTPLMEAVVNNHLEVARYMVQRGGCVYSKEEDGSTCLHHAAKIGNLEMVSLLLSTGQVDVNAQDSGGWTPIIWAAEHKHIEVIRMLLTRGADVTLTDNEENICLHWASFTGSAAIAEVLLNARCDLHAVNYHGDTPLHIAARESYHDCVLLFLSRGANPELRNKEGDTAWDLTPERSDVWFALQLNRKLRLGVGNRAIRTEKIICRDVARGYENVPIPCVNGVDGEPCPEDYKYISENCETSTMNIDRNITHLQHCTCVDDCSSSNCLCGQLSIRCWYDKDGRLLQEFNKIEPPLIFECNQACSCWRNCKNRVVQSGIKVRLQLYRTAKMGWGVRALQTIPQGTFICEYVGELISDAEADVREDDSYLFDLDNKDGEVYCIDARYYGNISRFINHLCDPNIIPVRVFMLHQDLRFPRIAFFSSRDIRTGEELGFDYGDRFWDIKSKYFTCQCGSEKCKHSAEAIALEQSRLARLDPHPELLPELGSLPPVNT
T1 sequence (Q9H9B1 2-1298 limits assumed): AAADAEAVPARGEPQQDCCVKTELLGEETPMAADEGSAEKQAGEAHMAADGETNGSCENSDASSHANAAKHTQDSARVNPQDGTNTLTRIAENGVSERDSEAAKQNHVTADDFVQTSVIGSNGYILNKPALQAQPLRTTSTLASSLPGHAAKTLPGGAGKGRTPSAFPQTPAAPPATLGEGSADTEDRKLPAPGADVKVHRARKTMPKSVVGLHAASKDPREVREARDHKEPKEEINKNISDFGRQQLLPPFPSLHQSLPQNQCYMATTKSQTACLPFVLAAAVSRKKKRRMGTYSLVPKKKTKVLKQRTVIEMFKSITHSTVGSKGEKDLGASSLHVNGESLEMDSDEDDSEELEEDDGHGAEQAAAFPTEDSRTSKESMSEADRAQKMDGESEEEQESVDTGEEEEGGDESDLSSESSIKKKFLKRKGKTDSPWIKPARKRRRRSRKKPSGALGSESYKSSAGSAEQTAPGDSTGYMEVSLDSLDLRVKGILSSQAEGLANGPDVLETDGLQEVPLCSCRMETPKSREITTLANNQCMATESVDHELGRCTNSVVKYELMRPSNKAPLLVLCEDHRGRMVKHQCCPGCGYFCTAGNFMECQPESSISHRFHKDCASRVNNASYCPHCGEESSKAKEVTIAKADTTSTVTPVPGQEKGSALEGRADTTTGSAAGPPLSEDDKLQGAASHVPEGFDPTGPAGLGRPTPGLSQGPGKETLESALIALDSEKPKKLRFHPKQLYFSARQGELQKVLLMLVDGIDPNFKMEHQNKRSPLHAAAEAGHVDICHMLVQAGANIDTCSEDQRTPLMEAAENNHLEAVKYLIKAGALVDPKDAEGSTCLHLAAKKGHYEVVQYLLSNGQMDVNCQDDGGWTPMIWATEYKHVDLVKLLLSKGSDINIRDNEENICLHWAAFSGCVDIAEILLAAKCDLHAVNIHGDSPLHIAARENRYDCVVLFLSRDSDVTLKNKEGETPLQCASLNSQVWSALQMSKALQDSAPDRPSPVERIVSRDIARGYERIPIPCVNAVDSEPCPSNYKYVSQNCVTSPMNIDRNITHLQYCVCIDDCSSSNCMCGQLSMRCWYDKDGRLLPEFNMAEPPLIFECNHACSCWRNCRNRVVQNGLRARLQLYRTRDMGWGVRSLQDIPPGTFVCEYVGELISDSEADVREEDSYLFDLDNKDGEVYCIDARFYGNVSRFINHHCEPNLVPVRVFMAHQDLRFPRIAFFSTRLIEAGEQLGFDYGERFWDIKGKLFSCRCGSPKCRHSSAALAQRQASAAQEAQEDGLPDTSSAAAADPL


Assays:
G9a and GLP = biological target: T1, G9a and GLP; experiment: Triple SILAC pull-down after UNC0638 treatment of 293T cells, DMSO/UNC0638 ratio of protein captured by 3×MBT; format: cell-based; set-up: cells were treated for 24 hours with UNC0638 at 2.5 μM or DMSO vehicle control; endogenous in cells; host or cells: HEK 293T; conditions: for Relative to UNC0638 UNC Heavy / Relative to UNC0638 UNC Light: SILAC ratio DMSO/UNC0638 of protein pulled down with 3xMBT; for Relative to UNC0638 UNC Heavy: UNC0638 in heavy SILAC media; for Relative to UNC0638 UNC Light: UNC0638 in light SILAC media; for Relative to UNC0638 Average: average of UNC Light and UNC Heavy experiments;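 as to all read-outs here: mass spectrometry (Q-Exactive) SILAC quantitation, DMSO/UNC0638 ratio computed after subtracting 3×MBTD355N mutant pull-down background, only proteins with at least twofold 3×MBT over mutant signal considered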
3×MBT domain of L3MBTL1 = experiment: Triple SILAC pull-down, 3xMBT/3xMBTD355N ratio (cytoplasmic, nuclear and chromatin fractions of 293T cells); format: binding, human; conditions: SILAC ratio, pull-down 3xMBT vs 3xMBTD355N; for 3xMBT/D355N UNC Heavy: experiment with UNC0638 in heavy SILAC media; for 3xMBT/D355N UNC Light: experiment with UNC0638 in light SILAC media;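 as to all read-outs here: proteins quantified with MaxQuant, requiring at least two unique peptides and quantification in both label directions, normalized to the mean of proteins from a digested loading control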

Row | Molecule | Relative to UNC0638 UNC Heavy (G9a and GLP) | Relative to UNC0638 UNC Light (G9a and GLP) | Relative to UNC0638 Average (G9a and GLP) | 3xMBT/D355N UNC Heavy (3×MBT domain of L3MBTL1) | 3xMBT/D355N UNC Light (3×MBT domain of L3MBTL1)
1 | DDX17 (protein, UniProt Q92841 1-729, looked up) Probable ATP-dependent RNA …: MPTGFVAPILCVLLPSPTREAATVASATGDSASERESAAPAAAPTAEAPPPSVVTRPEPQALPSPAIRAPLPDLYPFGTMRGGGFGDRDRDRDRGGFGARGGGGLPPKKFGNPGERLRKKKWDLSELPKFEKNFYVEHPEVARLTPYEVDELRRKKEITVRGGDVCPKPVFAFHHANFPQYVMDVLMDQHFTEPTPIQCQGFPLALSGRDMVGIAQTGSGKTLAYLLPAIVHINHQPYLERGDGPICLVLAPTRELAQQVQQVADDYGKCSRLKSTCIYGGAPKGPQIRDLERGVEICIATPGRLIDFLESGKTNLRRCTYLVLDEADRMLDMGFEPQIRKIVDQIRPDRQTLMWSATWPKEVRQLAEDFLRDYTQINVGNLELSANHNILQIVDVCMESEKDHKLIQLMEEIMAEKENKTIIFVETKRRCDDLTRRMRRDGWPAMCIHGDKSQPERDWVLNEFRSGKAPILIATDVASRGLDVEDVKFVINYDYPNSSEDYVHRIGRTARSTNKGTAYTFFTPGNLKQARELIKVLEEANQAINPKLMQLVDHRGGGGGGGGRSRYRTTSSANNPNLMYQDECDRRLRGVKDGGRRDSASYRDRSETDRAGYANGSGYGSPNSAFGAQAGQYTYGQGTYGAAAYGTSSYTAQEYGAGTYGASSTTSTGRSSQSSSQQFSGIGRSGQQPQPLMSQQFAQPPGATNMIGYMGQTAYQYPPPPPPPPPSRK | 0.21 log base 2 | 0.12 log base 2 | 0.16 log base 2 | 2.61 log base 2 | 2.86 log base 2
2 | C14orf166 (protein, UniProt Q9Y224 1-244, looked up) RNA transcription, …: MFRRKLTALDYHNPAGFNCKDETEFRNFIVWLEDQKIRHYKIEDRGNLRNIHSSDWPKFFEKYLRDVNCPFKIQDRQEAIDWLLGLAVRLEYGDNAEKYKDLVPDNSKTADNATKNAEPLINLDVNNPDFKAGVMALANLLQIQRHDDYLVMLKAIRILVQERLTQDAVAKANQTKEGLPVALDKHILGFDTGDAVLNEAAQILRLLHIEELRELQTKINEAIVAVQAIIADPKTDHRLGKVGR | 0.09 log base 2 | 0.24 log base 2 | 0.16 log base 2 | 3.09 log base 2 | 3.13 log base 2
3 | DRG1 (protein, UniProt Q9Y295 2-367, looked up) Developmentally-regulated …: SSTLAKIAEIEAEMARTQKNKATAHHLGLLKARLAKLRRELITPKGGGGGGPGEGFDVAKTGDARIGFVGFPSVGKSTLLSNLAGVYSEVAAYEFTTLTTVPGVIRYKGAKIQLLDLPGIIEGAKDGKGRGRQVIAVARTCNLILIVLDVLKPLGHKKIIENELEGFGIRLNSKPPNIGFKKKDKGGINLTATCPQSELDAETVKSILAEYKIHNADVTLRSDATADDLIDVVEGNRVYIPCIYVLNKIDQISIEELDIIYKVPHCVPISAHHRWNFDDLLEKIWDYLKLVRIYTKPKGQLPDYTSPVVLPYSRTTVEDFCMKIHKNLIKEFKYALVWGLSVKHNPQKVGKDHTLEDEDVIQIVKK | 0.36 log base 2 | −0.03 log base 2 | 0.16 log base 2 | 3.49 log base 2 | 3.66 log base 2

Further lines, with some results ahead:

Row | Relative to UNC0638 UNC Heavy (G9a and GLP) | Relative to UNC0638 UNC Light (G9a and GLP) | Relative to UNC0638 Average (G9a and GLP) | Molecule | 3xMBT/D355N UNC Heavy (3×MBT domain of L3MBTL1) | 3xMBT/D355N UNC Light (3×MBT domain of L3MBTL1)
4 | 0.08 log base 2 | 0.25 log base 2 | 0.17 log base 2 | SFPQ (protein, UniProt P23246 1-707, looked up) Splicing factor, proline- and …: MSRDRFRSRGGGGGGFHRRGGGGGRGGLHDFRSPPPGMGLNQNRGPMGPGPGQSGPKPPIPPPPPHQQQQQPPPQQPPPQQPPPHQPPPHPQPHQQQQPPPPPQDSSKPVVAQGPGPAPGVGSAPPASSSAPPATPPTSGAPPGSGPGPTPTPPPAVTSAPPGAPPPTPPSSGVPTTPPQAGGPPPPPAAVPGPGPGPKQGPGPGGPKGGKMPGGPKPGGGPGLSTPGGHPKPPHRGGGEPRGGRQHHPPYHQQHHQGPPPGGPGGRSEEKISDSEGFKANLSLLRRPGEKTYTQRCRLFVGNLPADITEDEFKRLFAKYGEPGEVFINKGKGFGFIKLESRALAEIAKAELDDTPMRGRQLRVRFATHAAALSVRNLSPYVSNELLEEAFSQFGPIERAVVIVDDRGRSTGKGIVEFASKPAARKAFERCSEGVFLLTTTPRPVIVEPLEQLDDEDGLPEKLAQKNPMYQKERETPPRFAQHGTFEYEYSQRWKSLDEMEKQQREQVEKNMKDAKDKLESEMEDAYHEHQANLLRQDLMRRQEELRRMEELHNQEMQKRKEMQLRQEEERRRREEEMMIRQREMEEQMRRQREESYSRMGYMDPRERDMRMGGGGAMNMGDPYGSGGQKFPPLGGGGGIGYEANPGVPPATMSGSMMGSDMRTERFGQGGAGPVGGQGPRGMGPGTPAGYGRGREEYEGPNKKPRF | 3.19 log base 2 | 3.86 log base 2
5 | 0.16 log base 2 | 0.17 log base 2 | 0.16 log base 2 | PABPC4 (protein, UniProt Q13310 1-644, looked up) Polyadenylate-binding protein …: MNAAASSYPMASLYVGDLHSDVTEAMLYEKFSPAGPVLSIRVCRDMITRRSLGYAYVNFQQPADAERALDTMNFDVIKGKPIRIMWSQRDPSLRKSGVGNVFIKNLDKSIDNKALYDTFSAFGNILSCKVVCDENGSKGYAFVHFETQEAADKAIEKMNGMLLNDRKVFVGRFKSRKEREAELGAKAKEFTNVYIKNFGEEVDDESLKELFSQFGKTLSVKVMRDPNGKSKGFGFVSYEKHEDANKAVEEMNGKEISGKIIFVGRAQKKVERQAELKRKFEQLKQERISRYQGVNLYIKNLDDTIDDEKLRKEFSPFGSITSAKVMLEDGRSKGFGFVCFSSPEEATKAVTEMNGRIVGSKPLYVALAQRKEERKAHLTNQYMQRVAGMRALPANAILNQFQPAAGGYFVPAVPQAQGRPPYYTPNQLAQMRPNPRWQQGGRPQGFQGMPSAIRQSGPRPTLRHLAPTGSECPDRLAMDFGGAGAAQQGLTDSCQSGGVPTAVQNLAPRAAVAAAAPRAVAPYKYASSVRSPHPAIQPLQAPQPAVHVQGQEPLTASMLAAAPPQEQKQMLGERLFPLIQTMHSNLAGKITGMLLEIDNSELLHMLESPESLRSKVDEAVAVLQAHHAKKEAAQKVGAVAAATS | 2.94 log base 2 | 3.59 log base 2

— patent US20140274782A1, “AFFINITY REAGENTS AND METHODS FOR DETECTION, PURIFICATION, AND PROTEOMIC ANALYSIS OF METHYLATED PROTEINS” (The Board of Trustees of the Leland Stanford Junior …, priority 2013, published 2014)
